Experimental data from paper PMC4091638.
Each block holds one binder with its values, some of them ahead of it.

Biological target: T1, Mmm1-SOG (miniSOG fused to the cytosolic face of Mmm1) (S. cerevisiae), P41800
T1 chain: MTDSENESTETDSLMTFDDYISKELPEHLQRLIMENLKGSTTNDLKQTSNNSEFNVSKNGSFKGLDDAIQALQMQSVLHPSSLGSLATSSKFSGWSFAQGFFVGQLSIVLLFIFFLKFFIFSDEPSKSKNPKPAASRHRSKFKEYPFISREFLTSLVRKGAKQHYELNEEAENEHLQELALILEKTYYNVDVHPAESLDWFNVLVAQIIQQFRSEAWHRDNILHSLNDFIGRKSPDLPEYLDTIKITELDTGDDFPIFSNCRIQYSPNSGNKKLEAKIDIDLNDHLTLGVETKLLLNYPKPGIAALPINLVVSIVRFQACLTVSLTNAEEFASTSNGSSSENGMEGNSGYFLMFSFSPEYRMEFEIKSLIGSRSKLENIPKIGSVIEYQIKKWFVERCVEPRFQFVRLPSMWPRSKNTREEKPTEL
Assay: singlet oxygen triplet energy transfer
Settings: remark: other sources report otherwise

- STET signal: 0.082 s⁻¹
B1: Mdm34-SOS (IFP1.4 fused to the cytosolic face of Mdm34), P53083 1-459 (natural protein)
chain: MSFRFNEAVFGDNSFNERIREKLSTALNSPSKKKLDILKSGIKVQKVDFPTIPQLEILDLDIITQPKSLAKGICKISCKDAMLRIQTVIESNLLLINEQDTPSFTMPQLINNGSFTIPITMTFSSIELEAITNIFVKNPGIGISFNDVDLDFKFDCSVKILQSTIERRLKESMHVVFKDVLPSLIFNTSQNWFTNRGESTSTIPGKREHHHQQTTMSRNVILDGSDFQELSPINMLRLSSIVSSRSTLSLHSTVMNSLSAIPGCLERQNLYRFISRMPSLNNYYSSQSFPQPKSSTVSSKQLVKPFYCSHNLLPKTVLDSSQYDLATITKIQSRLFDRSNSNDDNAKPRRRKIKCKKTRTPSNLQSQGEQAVDDSTAIETVTSTPVQTPIPELEEQSPPYLKTTVSIRDKYVIPEKISLNLDSKKDTSKKKPFYFIGLNSQEPSNNWKWGMEDSPPPYH

- STET signal: 0.052 s⁻¹
B2: SOS-Mdm34 (IFP1.4 fused to the N-terminus of Mdm34, facing the intermembrane space), P53083 1-459 (natural protein)
chain: B1 chain
